The data set concerns the molecule itself. The data set is described as follows: SEC-MALS; SEC combined with static and dynamic light scattering (SEC-SLS/DLS, right-angle light scattering) and a SEC standard curve; Superdex 200 5/150, 50 mM NaH2PO4, 500 mM NaCl, pH 8, 20 °C; after His-tag removal.

B1: beta-carbonic anhydrase from Trichomonas vaginalis (TvaCA1) (enzyme)
chain: MSQLELITSANQAFLEANPELTKLNKAPQRHIAIVTCMDTRLVNFAEDAIGVKRGEATVIKAAGNGIWTTGLSDIVVSLLVSIYELGVQEIFIMGHECCGMTHASTDSLGAQMLKSGIKPEDIEKFKSDLSKWVDDFKDPIDNIKNSVRCVRENPLIPKNIPIHGLLIHPDTGKVTTIINGY
notes: TvaCA1, beta-carbonic anhydrase of Trichomonas vaginalis, gene TVAG_005270, UniProt A2ENQ8; Zinc metalloenzyme; The His-tag was removed by thrombin at an LVPRGS site; also called β-CA from T. vaginalis; source: E. coli BL21 Star (DE3), purified (Ni2+-NTA, His-tag removed by thrombin, second Ni2+-NTA; SEC in addition for crystallisation); not shown: His6, N-terminal, cleaved
For the protein B1, the “stoichiometry N” value was 2.

The record behind these values is publication PMC7717681, “Biochemical and structural characterisation of a protozoan beta-carbonic anhydrase from Trichomonas vaginalis” (Journal of Enzyme Inhibition and Medicinal Chemistry, 2020).
